From article PMC3446948, “Protection against Th17 Cells Differentiation by an Interleukin-23 Receptor Cytokine-Binding Homology Region” (PLoS ONE, 2012)

What was measured:
Human IL-23 = target: T1, Human IL-23 (human, UniProt Q9NPF7 20-189; P29460 23-328); assay: ELISA; direct binding ELISA: 10 ng/well human IL-23 coated, various concentrations of IL23R-CHR added, bound IL23R-CHR detected by HRP-labelled IL23R mAb; non-linear regression; conditions: both partners purified
T1 construct: Interleukin-23 subunit alpha (p19), human; subunit of the bought heterodimeric cytokine; Interleukin-12 subunit beta (p40), human; also called human IL-23 complex; source: bought: R&D
T1 sequence (looked up) 1: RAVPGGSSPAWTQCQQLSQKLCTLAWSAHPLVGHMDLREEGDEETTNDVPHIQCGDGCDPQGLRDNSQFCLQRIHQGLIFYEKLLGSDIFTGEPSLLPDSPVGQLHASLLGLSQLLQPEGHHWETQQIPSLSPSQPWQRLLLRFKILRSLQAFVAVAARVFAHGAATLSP
T1 sequence (looked up) 2: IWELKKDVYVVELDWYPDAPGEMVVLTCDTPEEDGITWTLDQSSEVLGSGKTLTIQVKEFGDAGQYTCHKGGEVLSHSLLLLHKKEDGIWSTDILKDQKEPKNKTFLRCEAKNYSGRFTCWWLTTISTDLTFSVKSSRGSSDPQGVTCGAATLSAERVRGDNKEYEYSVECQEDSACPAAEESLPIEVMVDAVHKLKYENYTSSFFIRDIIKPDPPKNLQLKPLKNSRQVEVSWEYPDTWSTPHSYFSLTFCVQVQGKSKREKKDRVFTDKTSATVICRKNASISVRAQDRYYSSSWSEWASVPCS

Mouse IL-23 (mouse) = Mouse IL-23 (mouse) (UniProt Q9EQ14)
Sequence of Mouse IL-23 (mouse) (Q9EQ14 22-196, chain 1 of 2): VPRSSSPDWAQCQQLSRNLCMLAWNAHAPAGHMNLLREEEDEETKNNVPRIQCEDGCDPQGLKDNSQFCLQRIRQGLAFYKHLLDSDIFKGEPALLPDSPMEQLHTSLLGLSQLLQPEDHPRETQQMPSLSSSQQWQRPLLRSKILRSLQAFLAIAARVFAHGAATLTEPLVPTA
Sequence of Mouse IL-23 (mouse) (P43432 23-335, chain 2 of 2, further chain): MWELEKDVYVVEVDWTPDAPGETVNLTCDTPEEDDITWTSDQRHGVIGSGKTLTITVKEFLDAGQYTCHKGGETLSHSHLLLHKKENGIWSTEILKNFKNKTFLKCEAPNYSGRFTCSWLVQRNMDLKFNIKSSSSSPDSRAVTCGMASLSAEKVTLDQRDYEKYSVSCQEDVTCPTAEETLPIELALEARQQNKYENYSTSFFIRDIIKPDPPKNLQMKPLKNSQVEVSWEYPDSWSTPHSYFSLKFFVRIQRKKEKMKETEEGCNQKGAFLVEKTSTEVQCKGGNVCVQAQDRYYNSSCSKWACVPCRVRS

IC50 (Human IL-23): 90 nM | percentage of IL-17a+ cells in mouse CD4+ T cells (flow cytometry) under Th17 polarisation with IL23R-CHR 0, 5 and 25 ug/ml, 72 h; the value given is that at 25 ug/ml (Mouse IL-23 (mouse)): 4.18%
B1: Human IL-23 receptor cytokine-binding homology region (IL23R-CHR, amino acid residues 124-313) (domain or fragment)
chain: PPDIPDEVTCVIYEYSGNMTCTWNAGKLTYIDTKYVVHVKSLETEEEQQYLTSSYINISTDSLQGGKKYLVWVQAANALGMEESKQLQIHLDDIVIPSAAVISRAETINATVPKTIIYWDSQTTIEKVSCEMRYKATTNQTWNVKEFDTNFTYVQQSEFYLEPNIKYVFQVRCQETGKRYWQPWSSLFFH
modifications: Expressed in E. coli (non-glycosylated). The Trx-His6 tag was removed by enterokinase. A short vector/primer-derived N-terminal remnant remains and is omitted: printed as 'A', while the NcoI primer …
